According to patent publication US9803013B2, “Biological materials and uses thereof” (BioInvent International AB, priority 2005, dated 2017):

Legend:
B lymphoma tissue = assay: Immunohistochemistry on cryopreserved lymph node biopsies; type: binding, human; design: key: Increasing numbers of + indicate stronger staining.; ++: Increasing numbers of + indicate stronger staining.; +++: Increasing numbers of + indicate stronger staining
Procedure: Cryopreserved lymph node biopsies of patients with Anaplastic Large Cell B lymphoma (one patient), Centroblastic/Centrocytic B non-Hodgkin lymphoma (three patients), and B cell chronic lymphocytic leukaemia (one patient) were obtained from the Department of Pathology at Lund University (Lund, Sweden). Eight-micrometer sections of cryo-preserved tissue were fixed in acetone for 10 min at 4° C. Endogenous biotin-binding activity was blocked by sequential treatment with Avidin and Biotin (Avidin/Biotin blocking kit, Invitrogen) for 20 min each.
Tissues were incubated with 5 μg/ml control scFv or B11 scFv for 1 h. Following washing, sections were incubated with biotin-conjugated mouse anti-His mAb (R&D Systems) for 30 min. scFv binding was detected following treatment with ABC Complex/HRP reagent (Dako Cytomation) for 30 min, and subsequent incubation with DAB for 5 min.
Sections were photographed using a Leica DC 300F digital camera mounted on top of a Leica DMR light/fluorescence microscope.

[1] = Single dose study in the rat (BI-505 pharmacokinetics); type: in vivo; details: for tmax: iv
Text: AUC0-tlast=area under the serum concentration-time curve from time zero to last quantifiable concentration; AUC0-∞=area under the serum concentration-time curve from time zero to infinity; Cmax=maximum observed serum concentration; tmax=time of maximum observed serum concentration; t1/2=apparent terminal elimination half-life; CL=total serum clearance; Vss=apparent volume of distribution at steady-state; Vz=apparent volume of distribution during the terminal elimination phase. There were six animals per sex and treatment group.
Rats (n=6 per sex and treatment, for a total of 36 rats) were given 0.5, 2.5 or 10 mg/kg BI-505 as a single i.v. treatment. Blood was drawn from the caudal vein of rats at the following time-points: pre-dose, 15 min, 30 min, 1 hr, 2 hr, 8 hr, 24 hr, 2 days, 3 days, 5 days, 8 days, 2 weeks and 3 weeks. BI-505 serum concentrations were determined by ELISA from 15-18 samples per time-point, collected from alternating animals. Pharmacokinetics was calculated from the individual animal serum concentration-time data of BI-505 using non-compartmental analyses. […]

DU145 cells = assay: Apoptosis induction in carcinoma cells (cross-linked IgG, 16-24 hours, Annexin V/PI); type: cell-based, human
Procedure: (§1) The prostate carcinoma cell line PC-3 was grown in Complete Growth Medium (RPMI 1640, supplemented with 10% FCS, 10 mM HEPES, and 2 mM L-Glutamine) to 80% confluency in a 6 well plate. The prostate carcinoma cell line DU145 was grown in MEM with Earl's salts, supplemented with 10% FCS, 1 mM sodium pyruvate, and 1 mM non-essential amino acids and the derivate of a melanoma cell line MDA MB 435 was grown in DMEM supplemented with 10% FCS.
(§2) For apoptosis assays cells were washed in PBS and serially diluted B11 IgG1 (or B1 IgG1, Trastuzumab or negative antibody control for controls) was added to individual wells and binding was allowed during a 1-2 h incubation at 4° C. The cells were washed and Complete Growth Medium was added, containing cross-linking antibody, Fab′2 Goat anti-Human Fab′2, at 10 μg/ml. Cells were incubated in a humidified atmosphere, with 5% CO2 at 37° C., for 16-24 hours. Cells were collected by trypsination and stained with Alexa Fluor 488-Annexin V (AF488-AV) and propidium iodide (PI), according to manufacturer's instructions. The percentage apoptotic cells was determined by the formula: % apoptotic cells=100−% AF488−AV/PI−/−.
(§3) Cells were seeded in 6 well plates with Complete Growth Medium three days before the onset of the experiment.

MDA MB 435 cells = assay: as above; type: cell-based, human; details: MDA MB 435, cross-linked IgG
Procedure: as §1, §2, §3

[2] = tested on: endothelial cells (HUVEC, HMVEC); assay: HUVEC and HMVEC apoptosis assay; type: cell-based
Procedure: (FIG. 23G) Antibody-induced endothelial cell apoptosis. HUVEC or HMVEC endothelial cells were incubated with paclitaxel (positive control), BI-505 or isotype control IgG in the presence or absence of cross-linking mAb. Apoptosis was measured by flow-cytometry following staining of cells with Annexin V-AF488.
Based on BI-505's documented ability to confer Fc:FcγR-dependent antitumor activity in malignant B cells, and a proposed general negative role for complement activation with regard to antibody tolerability (Lim et al.; van der Kolk et al., 2001), direct cytotoxic effects (PCD, ADCC, and CDC) of BI-505 in ICAM-1-expressing human peripheral blood B cells and endothelial cells were examined.
HUVEC (Cascade Biologics, pool of donors) and HMVEC (Cascade Biologics) were plated in 6-well plates (80 000-120 000 cells/well) in the presence or absence of 200 U/mL IFNγ, in order to induce ICAM-1 expression. Media was changed the day before apoptosis-induction experiments were performed and titrated concentrations of BI-505, enlimomab or isotype control antibody were added to the cells, in the presence or absence of cross-linking Fab (ab′)2 (same as the B-cell protocol). […] Necrotic cells were identified by increased fluorescence in the FL-4 channel and apoptotic cells by increased signal in the FL-1 channel on a flow cytometer (FACSCalibur, BD Bioscience).

T cells = assay: T cell proliferation (CFSE); type: cell-based, human; details: immobilized (air-dried or wet coated) or in solution
Procedure: (FIG. 23F) Antibody induced T-cell proliferation. CFSE-labeled T-cells were incubated with BI-505, isotype control IgG or anti-CD3 (okt-3) IgG hyperimmobilised to cell culture plates by air-drying “A” or wet-coating “W”. Cells were cultured for 6 days, and T cell proliferation was monitored by flow-cytometry as decreased CFSE signals.
Cytokine release and T cell proliferation are thought to be common causes of mild and severe adverse reactions to antibody therapy. In order to further investigate any undesirable effects of BI-505 on ICAM-1 expressing immune cells, we therefore assessed putative effects of BI-505 on peripheral blood mononuclear cell (PBMC) cytokine release and T cell proliferation. In order to maximize the chances of identifying any PBMC-agonistic properties of BI-505, we used two different antibody-coating protocols in which the antibody was hyper-cross-linked as previously described (Stebbings et al., 2007).
T cells used in the proliferation assay were stained with CFSE (carboxyfluorescein diacetate, succinimidyl ester; Invitrogen). The CFSE-labeled cells were seeded at a density of 150,000 cells/well in wet and air-dried antibody-coated plates. The cells were cultured for 6 days with one renewal of medium after 3 days. AccuCheck Count Beads (Invitrogen) were used to ensure accurate quantification of cell proliferation in the flow cytometry. […]

B1: B11: fully human IgG1 antibody specific for ICAM-1; VH and VL sequences of FIG. 10 (SEQ ID NOs. 6 and 8) (antibody, listed as Homo sapiens, V domains shown)
VH: EVQLLESGGGLVQPGGSLRLSCAASGFTFSNAWMSWVRQAPGKGLEWVAFIWYDGSNKYYADSVKGRFTISRDNSKNTLYLQMNSLRAEDTAVYYCARYSGWYFDYWGQGTLVTVSS
VL: QSVLTQPPSASGTPGQRVTISCTGSSSNIGAGYDVHWYQQLPGTAPKLLIYDNNNRPSGVPDRFSGSKSGTSASLAISGLRSEDEADYYCQSYDSSLSAWLFGGGTKLTVLG
B lymphoma tissue; Patient A, B-CLL (low malignant non-Hodgkin Lymphoma)
  Staining of B lymphoma tissue: +
B lymphoma tissue; Patient B, Anaplastic Large Cell B Cell Lymphoma
  Staining of B lymphoma tissue: ++
B lymphoma tissue; Patient D, B-CLL/B-PLL
  Staining of B lymphoma tissue: ++
B lymphoma tissue; Patient F, Centroblastic-Centrocytic B non-Hodgkin Lymphoma
  Staining of B lymphoma tissue: ++
[1]; Males, 10 mg/kg single IV
  Cmax: 281 µg/mL
[1]; in vivo
  anti-BI-505 antibodies: no anti-BI-505 antibodies were detected
  half-life: 12 to 13 days
  half-life corresponding in man: 2-3 weeks
[1]; in vivo, 0.5 mg/kg
  tmax: 15 min
[1]; in vivo, 10 mg/kg
  tmax: 30 min
DU145 cells
  Apoptosis Induction: induce apoptosis
MDA MB 435 cells
  Apoptosis Induction: induce apoptosis
[2]
  cell death in normal cells: did not induce cell death
T cells
  T cell proliferation: did not induce T cell proliferation
